# T1: extracellular portion of the human FcγIIA (human, UniProt P12318-1 34-215)
# T1 chain: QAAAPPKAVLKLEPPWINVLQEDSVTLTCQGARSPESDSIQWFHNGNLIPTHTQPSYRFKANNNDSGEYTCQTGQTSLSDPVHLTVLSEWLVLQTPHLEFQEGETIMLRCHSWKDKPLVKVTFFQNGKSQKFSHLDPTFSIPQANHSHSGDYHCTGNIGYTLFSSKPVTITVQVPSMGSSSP
# B1: Pertuzumab Vκ1|VH3 whole IgG1 (original pairing) (antibody, V domains shown)
# VH: EVQLVESGGGLVQPGGSLRLSCAASGFTFTDYTMDWVRQAPGKGLEWVADVNPNSGGSIYNQRFKGRFTLSVDRSKNTLYLQMNSLRAEDTAVYYCARNLGPSFYFDYWGQGTLVTVSS
# VL: DIQMTQSPSSLSASVGDRVTITCKASQDVSIGVAWYQQKPGKAPKLLIYSASYRYTGVPSRFSGSGSGTDFTLTISSLQPEDFATYYCQQYYIYPYTFGQGTKVEIK
# Molecular target: T1, extracellular portion of the human …
# Experiment: BLI
row,Kd,Molecule
1,9.31 nM,B1

# Molecular target: extracellular portion of the human FcγIIA (human) (UniProt P12318)
# Experiment: BLI
row,Kd,Molecule
1,4.74 nM,Pertuzumab Vκ1|VH2 whole IgG1 variant (from UniProt P01857)
2,4.99 nM,Pertuzumab Vκ2|VH2 whole IgG1 variant (from UniProt P01857)
3,3.94 nM,Pertuzumab Vκ2|VH6 whole IgG1 variant (from UniProt P01857)
4,11.5 nM,Pertuzumab Vκ3|VH1 whole IgG1 variant (from UniProt P01857)
5,23.7 nM,Pertuzumab Vκ3|VH3 whole IgG1 variant (from UniProt P01857)
6,116 nM,Pertuzumab Vκ4|VH1 whole IgG1 variant (from UniProt P01857)
7,3.33 nM,Pertuzumab Vκ4|VH2 whole IgG1 variant (from UniProt P01857)
8,15.7 nM,Pertuzumab Vκ5|VH3 whole IgG1 variant (from UniProt P01857)
9,83 nM,Pertuzumab Vκ6|VH5 whole IgG1 variant (from UniProt P01857)
10,72.7 nM,Pertuzumab Vκ6|VH7 whole IgG1 variant (from UniProt P01857)
11,14.7 nM,Trastuzumab Vκ2|VH6 whole IgG1 variant (from UniProt P01857)
12,9.3 nM,Trastuzumab Vκ3|VH1 whole IgG1 variant (from UniProt P01857)
13,47.9 nM,Trastuzumab Vκ6|VH1 whole IgG1 variant (from UniProt P01857)
14,30 nM,Trastuzumab Vκ6|VH4 whole IgG1 variant (from UniProt P01857)
15,12.5 nM,Trastuzumab Vκ6|VH5 whole IgG1 variant (from UniProt P01857)
16,39.7 nM,Trastuzumab Vκ6|VH6 whole IgG1 variant (from UniProt P01857)

# Molecular target: T1, extracellular portion of the human …
# Experiment: BLI
# Remark: another data set of the same source
row,koff,Molecule
1,0.00154 s⁻¹,B1

# Molecular target: Pertuzumab Vκ1|VH3 whole IgG1 (original pairing)
# Experiment: BLI; Octet QKe; antibody captured by its Fc on Anti-Human Fc Capture (AHC) biosensor, Her2 in solution; KD calculated from Kon and Koff by the Octet software; triplicates
row,Kd,Molecule
1,0.87 nM,Her2 (from UniProt P04626 23-1255) (natural protein)

# Reference: paper PMC5857972 (2018)
